Earlier results, collected in PMC2975797.

Target: von Willebrand factor (Homo sapiens) (UniProt P04275)

Substance: Factor VIII (from UniProt P00451)
- Kd: < 0.5 nM
